Laboratory results as given in the supplement of paper PMC10201428.
± gives the standard deviation of the averaged measurements.

Columns and labels:
[1] = system: VchCAST RNA-guided transposition machinery (E. coli BL21(DE3) host, lacZ target); assay: relative integration efficiency (T-RL orientation) vs wild-type transposon end (log2 (normalized fold change)); transposon end mutated: right end (5 bp flank + 75 bp right end); higher = more efficient transposition
Outline: (§1)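 Barcoded pools of 1549 left-end or 1849 right-end transposon variants were cloned into a pUC57 mini-transposon donor. Each pool was co-transformed with a T7-driven effector plasmid (CRISPR array, tniQ-cas8-cas7-cas6, tnsA-tnsB-tnsC) into E. coli BL21(DE3) and plated with 0.1 mM IPTG at 37°C for 18 h. Input plasmids and genomic integration junctions were PCR-amplified and Illumina-sequenced, with two biological output replicates and four wild-type barcodes as reference. Relative integration efficiency is output/input barcode abundance fold change, normalised to wild-type barcodes and log-transformed.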

[2] = system: VchCAST RNA-guided transposition machinery (E. coli BL21(DE3) host, lacZ target); assay: relative integration efficiency (T-LR orientation) vs wild-type transposon end (log2 (normalized fold change)); transposon end mutated: right end (5 bp flank + 75 bp right end); higher = more efficient transposition
Outline: as §1

| Sequence | relative integration efficiency (log2) [1] | relative integration efficiency (log2) [2] |
| --- | --- | --- |
| ACATTTGTTGATACAACCATAAAATGATAATTACACCCATAAATTGATAATTATCACACCACGCCCGGTCGCGGTAAGAGGATCATAGTCAGACCAACATTGCTACGACCCGTATTCGCACCGACAC | -0.546 ± 0.089 | 2.46 ± 0.034 |
| ACATTTGTTGATACAACCATAAAATGATAATTACACCCATAAATTGATAATTATCACACCACTAAATTGATATTGCCTCTGATCATAGTCAGACCAACATTGCTACGACCCGTATTCGCACCGACAC | -0.503 ± 0.044 | 2.35 ± 0.27 |
| ACATTTGTTGATACAACCATAAAATGATAATTACACCCATAAATTGATAATTATCACACCCAGCCCGGTCGCGGTAAGAGGATCATAGTCAGACCAACATTGCTACGACCCGTATTCGCACCGACAC | -0.344 ± 0.16 | 2.65 ± 0.059 |
| ACATTTGTTGATACAACCATAAAATGATAATTACACCCATAAATTGATAATTATCACACCCATAAAGGTCGCGGTAAGAGGATCATAGTCAGACCAACATTGCTACGACCCGTATTCGCACCGACAC | -0.82 ± 0.057 | 2.16 ± 0.14 |
| ACATTTGTTGATACAACCATAAAATGATAATTACACCCATAAATTGATAATTATCACACCCATAAATGTCGCGGTAAGAGGATCATAGTCAGACCAACATTGCTACGACCCGTATTCGCACCGACAC | -0.671 ± 0.0087 | 2.19 ± 0.15 |
| ACATTTGTTGATACAACCATAAAATGATAATTACACCCATAAATTGATAATTATCACACCCATAAATTGAGCGGTAAGAGGATCATAGTCAGACCAACATTGCTACGACCCGTATTCGCACCGACAC | -0.428 ± 0.035 | 1.6 ± 0.023 |
| ACATTTGTTGATACAACCATAAAATGATAATTACACCCATAAATTGATAATTATCACACCCATAAATTGATACTCTGATCATAGTCAGACCAACATTGCTACGACCCGTATTCGCACCGACACTGAC | 0.0156 ± 0.031 | 0.201 ± 0.14 |
| ACATTTGTTGATACAACCATAAAATGATAATTACACCCATAAATTGATAATTATCACACCCATAAATTGATAGGTAAGAGGATCATAGTCAGACCAACATTGCTACGACCCGTATTCGCACCGACAC | -0.281 ± 0.02 | 0.884 ± 0.061 |
| ACATTTGTTGATACAACCATAAAATGATAATTACACCCATAAATTGATAATTATCACACCCATAAATTGATATCTCTGATCATAGTCAGACCAACATTGCTACGACCCGTATTCGCACCGACACTGA | -0.049 ± 0.013 | -0.209 ± 0.13 |
| ACATTTGTTGATACAACCATAAAATGATAATTACACCCATAAATTGATAATTATCACACCCATAAATTGATATGTAAGAGGATCATAGTCAGACCAACATTGCTACGACCCGTATTCGCACCGACAC | -0.111 ± 0.0046 | 0.00487 ± 0.23 |
| ACATTTGTTGATACAACCATAAAATGATAATTACACCCATAAATTGATAATTATCACACCCATAAATTGATATTCGGACTGATCATAGTCAGACCAACATTGCTACGACCCGTATTCGCACCGACAC | -0.0234 ± 0.0045 | 0.106 ± 0.13 |
| ACATTTGTTGATACAACCATAAAATGATAATTACACCCATAAATTGATAATTATCACACCCATAAATTGATATTCTCTGATCATAGTCAGACCAACATTGCTACGACCCGTATTCGCACCGACACTG | -0.0876 ± 0.015 | -0.29 ± 0.067 |
| ACATTTGTTGATACAACCATAAAATGATAATTACACCCATAAATTGATAATTATCACACCCATAAATTGATATTGAAGAGGATCATAGTCAGACCAACATTGCTACGACCCGTATTCGCACCGACAC | -0.00509 ± 0.15 | -0.000932 ± 0.33 |
| ACATTTGTTGATACAACCATAAAATGATAATTACACCCATAAATTGATAATTATCACACCCATAAATTGATATTGAAGATGATCATAGTCAGACCAACATTGCTACGACCCGTATTCGCACCGACAC | 0.3393 ± 0.002 | 0.0825 ± 0.095 |
| ACATTTGTTGATACAACCATAAAATGATAATTACACCCATAAATTGATAATTATCACACCCATAAATTGATATTGCAGAGGATCATAGTCAGACCAACATTGCTACGACCCGTATTCGCACCGACAC | 0.0202 ± 0.033 | -0.044 ± 0.11 |
| ACATTTGTTGATACAACCATAAAATGATAATTACACCCATAAATTGATAATTATCACACCCATAAATTGATATTGCAGCTGATCATAGTCAGACCAACATTGCTACGACCCGTATTCGCACCGACAC | 0.131 ± 0.028 | 0.0166 ± 0.64 |
| ACATTTGTTGATACAACCATAAAATGATAATTACACCCATAAATTGATAATTATCACACCCATAAATTGATATTGCCAACCATAAAATGATAATTACTCTGATCATAGTCAGACCAAGCACCGACAC | -1.11 ± 0.39 | -0.138 ± 0.05 |
| ACATTTGTTGATACAACCATAAAATGATAATTACACCCATAAATTGATAATTATCACACCCATAAATTGATATTGCCAGTGATCATAGTCAGACCAACATTGCTACGACCCGTATTCGCACCGACAC | -0.39 ± 0.14 | -0.53 ± 0.12 |

| Sequence | relative integration efficiency (log2) [1] | relative integration efficiency (log2) [2] |
| --- | --- | --- |
| ACATTTGTTGATACAACCATAAAATGATAATTACACCCATAAATTGATAATTATCACACCCATAAATTGATATTGCCCAACCATAAAATGATAATTATCTGATCATAGTCAGACCAAGCACCGACAC | -0.0286 ± 0.28 | -0.886 ± 0.6 |
| ACATTTGTTGATACAACCATAAAATGATAATTACACCCATAAATTGATAATTATCACACCCATAAATTGATATTGCCGAGGATCATAGTCAGACCAACATTGCTACGACCCGTATTCGCACCGACAC | 0.325 ± 0.077 | 0.294 ± 0.46 |
| ACATTTGTTGATACAACCATAAAATGATAATTACACCCATAAATTGATAATTATCACACCCATAAATTGATATTGCCGATGATCATAGTCAGACCAACATTGCTACGACCCGTATTCGCACCGACAC | 0.336 ± 0.0049 | 0.0792 ± 0.085 |
| ACATTTGTTGATACAACCATAAAATGATAATTACACCCATAAATTGATAATTATCACACCCATAAATTGATATTGCCTAGGATCATAGTCAGACCAACATTGCTACGACCCGTATTCGCACCGACAC | 0.0464 ± 0.076 | 0.23 ± 0.42 |
| ACATTTGTTGATACAACCATAAAATGATAATTACACCCATAAATTGATAATTATCACACCCATAAATTGATATTGCCTCAACCATAAAATGATAATTACTGATCATAGTCAGACCAAGCACCGACAC | -0.275 ± 0.21 | -1.08 ± 0.72 |
| ACATTTGTTGATACAACCATAAAATGATAATTACACCCATAAATTGATAATTATCACACCCATAAATTGATATTGCCTCCAACCATAAAATGATAATTATGATCATAGTCAGACCAAGCACCGACAC | -0.0389 ± 0.26 | -0.77 ± 0.082 |
| ACATTTGTTGATACAACCATAAAATGATAATTACACCCATAAATTGATAATTATCACACCCATAAATTGATATTGCCTCTAAAGTGTACAACACTTGAGAAAGTTTACTACAGGTATGCACCGACAC | -0.293 ± 0.28 | 0.483 ± 0.017 |
| ACATTTGTTGATACAACCATAAAATGATAATTACACCCATAAATTGATAATTATCACACCCATAAATTGATATTGCCTCTACATGAATTCAAAGTTATGTAATATAGTACTATGTACGCACCGACAC | -0.373 ± 0.31 | 0.172 ± 0.19 |
| ACATTTGTTGATACAACCATAAAATGATAATTACACCCATAAATTGATAATTATCACACCCATAAATTGATATTGCCTCTAGCTTGATCTACATTGGATTGCCATTCTCTCACAGTAGCACCGACAC | 0.0681 ± 0.22 | 0.213 ± 0.1 |
| ACATTTGTTGATACAACCATAAAATGATAATTACACCCATAAATTGATAATTATCACACCCATAAATTGATATTGCCTCTATGTACACTGATGAGTTATTACACCTCAAGTTCAATGGCACCGACAC | -0.228 ± 0.28 | -0.281 ± 0.31 |
| ACATTTGTTGATACAACCATAAAATGATAATTACACCCATAAATTGATAATTATCACACCCATAAATTGATATTGCCTCTCAACCATAAAATGATAATTAGATCATAGTCAGACCAAGCACCGACAC | -0.0518 ± 0.26 | 0.308 ± 0.018 |
| ACATTTGTTGATACAACCATAAAATGATAATTACACCCATAAATTGATAATTATCACACCCATAAATTGATATTGCCTCTCAGACCACATAGCTGCCATGTCCTGATCGGACGGACCGCACCGACAC | 0.787 ± 0.22 | 0.624 ± 0.19 |
| ACATTTGTTGATACAACCATAAAATGATAATTACACCCATAAATTGATAATTATCACACCCATAAATTGATATTGCCTCTCCGACCCGGAAGAGGGCGCCTAGAATTGGGAGTGGTCGCACCGACAC | 0.139 ± 0.13 | 0.134 ± 0.075 |
| ACATTTGTTGATACAACCATAAAATGATAATTACACCCATAAATTGATAATTATCACACCCATAAATTGATATTGCCTCTCGCGAGAGGCCGGCAGCCGTCTGGCGTCGGGTGGCGGGCACCGACAC | 0.713 ± 0.16 | 0.646 ± 0.53 |
| ACATTTGTTGATACAACCATAAAATGATAATTACACCCATAAATTGATAATTATCACACCCATAAATTGATATTGCCTCTGACAACCATAAAATGATAATTATCATAGTCAGACCAAGCACCGACAC | -0.213 ± 0.28 | -0.0996 ± 0.32 |
| ACATTTGTTGATACAACCATAAAATGATAATTACACCCATAAATTGATAATTATCACACCCATAAATTGATATTGCCTCTGACTTAAACAAAATATATCTTGCCCGCCTTACAAATAGCACCGACAC | 0.417 ± 0.32 | 0.774 ± 0.22 |
| ACATTTGTTGATACAACCATAAAATGATAATTACACCCATAAATTGATAATTATCACACCCATAAATTGATATTGCCTCTGATAACTTCGTATAAAGTATCCTATACGAAGTTATTCGCACCGACAC | -0.255 ± 0.26 | 0.85 ± 0.066 |
